Read-outs that look alike come from different tables or passages of the source.
Experiments:
[1] = molecular target: T1, parental receptor binding domain (RBD) protein (amino acids 319 to 541 of the spike protein) with c-terminal … (SARS-CoV-2 (Wuhan-Hu-1), UniProt P0DTC2 319-541); assay: ELISA, RBD coated, IgG detected with anti-human Fc-HRP
[2] = molecular target: T2, SARS CoV-2 spike trimer protein from the parental Wuhan-Hu-1 isolate (extracellular domain, furin-cl (SARS-CoV-2 (Wuhan-Hu-1)))
[3] = molecular target: T3, SARS-CoV-2 (Wuhan-Hu-1) wild-type (WT) spike protein carried on pseudotyped virus or on live wild-type virus (SARS-CoV-2 (Wuhan-Hu-1), UniProt P0DTC2 14-1273); assay: cell-based or functional assay
[4] = molecular target: T2, SARS CoV-2 spike trimer protein from …; remark: listed apart in the source
[5] = molecular target: recombinant stabilized spike protein derived from the beta strain (formerly described as the South A (SARS-CoV-2 (B.1.351), UniProt P0DTC2 14-1208))
[6] = molecular target: T3, SARS-CoV-2 (Wuhan-Hu-1) wild-type (WT) …; assay: cell-based or functional assay; remark: listed apart in the source
[7] = molecular target: T1, parental receptor binding domain (RBD) …
[8] = molecular target: T2, SARS CoV-2 spike trimer protein from …; assay: ELISA, spike protein coated, IgG detected with anti-human Fc-HRP
[9] = molecular target: SARS-CoV-2 spike protein variant 484K on pseudotyped virus (SARS-CoV-2, UniProt P0DTC2 14-1273); assay: cell-based or functional assay
[10] = molecular target: T4, SARS-CoV-2 B.1.351 ('SA', beta) variant spike protein on pseudotyped virus or live virus (SARS-CoV-2 (B.1.351), UniProt P0DTC2 14-1273); assay: cell-based or functional assay
[11] = molecular target: T4, SARS-CoV-2 B.1.351 ('SA', beta) variant …; assay: cell-based or functional assay; remark: listed apart in the source
[12] = molecular target: S protein of a SARS-CoV-2 delta lineage virus on pseudotyped virus (SARS-CoV-2 (delta lineage)); assay: cell-based or functional assay

B1: R2G3 ultralong CDR3 chimeric bovine-human IgG1 antibody (antibody)
VH: QVQLRESGPSLVKPSQTLSLTCAASGFSLSDKAVGWVRRAPGKALEWLGSIDTGGSTGYNPGLKSRLSITKDNSKSQVSLSISSVTSEDSATYYCATVHQKTAEGDKTCPDGYEHTCGCIGGCGCKRSACIGALCCQASLGGWLSDGETYTYEFHVDTWGQGLVVTVSS
VL: QAVLNQPSSVSGSLGQRVSITCSGSSSNVGNGYVSWYQLIPGSAPRTLIYGDTSRASGVPDRFSGSRSGNTATLTISSLQAEDEADYFCASAEDSSSNAVFGSGTTLTVL
- EC50 [1]: 0.056 nM
- EC50 (read off the curve) [2]: ~0.01 nM
- pseudovirus neutralization IC50 (luciferase assay) [3]: > 1 ng/mL
- EC50 (read off the curve) [4]: ~0.4 nM
- EC50 (read off the curve) [5]: ~0.2 nM
- live SARS CoV-2 neutralization, ng/mL (quantity not given) [6]: 0.5 ng/mL
- pseudovirus neutralization, ng/mL (quantity not given) [6]: 0.2 ng/mL
- EC50 (read off the curve) [7]: ~0.02 nM

B2: RBD F4 chimeric bovine-human IgG1 antibody (antibody, V domains shown)
VH: QVQLRESGPSLVKPSQTLSLTCTVSGFSLSSNGVVWVRQAPGKALEWLGDICSTGGTSFNPALKSRLSIAKDNSKSQVSLSVRSVTPEDTATYYCARSRGYDCYANVDALDYVDAWGQGLLVTVSS
VL: QAVLNQPSSVSGSLGQRVSITCSGSSSNVGNGYVSWYQLIPGSAPRTLIYGDTSRASGVPDRFSGSRSGNTATLTISSLQAEDEADYFCASAEDSSSNAVFGSGTTLTVL
- EC50 [1]: 0.03 nM
- EC50 [8]: 0.03 nM

B3: R2D6 chimeric bovine-human IgG1 antibody (antibody, V domains shown)
VH: QVQLRESGPSLVKPSQTLSLTCTTSGFSLSSYAVGWVRQAPGKALEWVGDIDYVGNTDYNPALKSRLSITKDNSKSQVSLVVSSVTAEDAATYYCAKYSGAYAYAACNYYGWRCAWESYIDAWGQGLLVTVSS
VL: QAVLNQPSSVSGSLGQRVSITCSGSSSNVGNGYVSWYQLIPGSAPRTLIYGDTSRASGVPDRFSGSRSGNTATLTISSLQAEDEADYFCASAEDSSSNAVFGSGTTLTVL
- EC50 [1]: 0.57 nM
- EC50 [8]: 0.41 nM

B4: R2C3 (R5C1) ultralong CDR3 chimeric bovine-human IgG1 antibody (antibody)
VH: QVQLRESGPSLVKPSQTLSLTCTASGFSLSDKPVGWVRQAPGKPLEWLGSIDTAENTGYNPGLKSRLSITKDNSKSQVSLSLSSVTTEDSATYYCATVHQKTRKEKSCPDGYLYSSNTGRGYDCGVWTCRRVGGEFCSATGDWTSPSEEDFYEFYVDTWGQGAPVTVSS
VL: QAVLNQPSSVSGSLGQRVSITCSGSSSNVGNGYVSWYQLIPGSAPRTLIYGDTSRASGVPDRFSGSRSGNTATLTISSLQAEDEADYFCASAEDSSSNAVFGSGTTLTVL
- EC50 [8]: 0.39 nM
- EC50 (read off the curve) [4]: ~0.3 nM
- EC50 (read off the curve) [5]: ~0.3 nM

B5: SKM ultralong CDR3 chimeric bovine-human IgG1 antibody (antibody)
VH: QVQLRESGPSLVKPSQTLSLTCTASGFSLSDKAVGWVRQAPGKALEWLGSIDTGGNTGYNPGLKSRLSITKDNSKSQVSLSVSSVTTEDSATYYCTTVHQETLRSCPDGYIDNSGCTADWGCAALDCWRRRFGYHSTDPSHYTGATYIYTYSLHIDAWGQGLLVTVSS
VL: QAVLNQPSSVSGSLGQRVSITCSGSSSNVGNGYVSWYQLIPGSAPRTLIYGDTSRASGVPDRFSGSRSGNTATLTISSLQAEDEADYFCASAEDSSSNAVFGSGTTLTVL
- pseudovirus luciferase assay EC50 [9]: > 1 nM
- pseudovirus luciferase assay EC50 [10]: > 1 nM
- pseudovirus neutralization, ng/mL (quantity not given) [11]: > 1000 ng/mL

B6: R2B1 chimeric bovine-human IgG1 antibody (antibody, V domains shown)
VH: QVQLRESGPSLVKPSQTLSLTCTVSGFSLSDNNVGWVRQAPGKALEWLGVMHNDGNKGYNPALKSRLSITKDSSKSQVSLSLSSVTSEDTATYYCTRDNARCDSWTYDSCDTWYRNSWHVDAWGQGLLVTVSS
VL: QAVLNQPSSVSGSLGQRVSITCSGSSSNVGNGYVSWYQLIPGSAPRTLIYGDTSRASGVPDRFSGSRSGNTATLTISSLQAEDEADYFCASAEDSSSNAVFGSGTTLTVL
- EC50 [1]: 0.52 nM
- EC50 [8]: 0.37 nM

B7: SKD ultralong CDR3 chimeric bovine-human IgG1 antibody (antibody)
VH: QVQLRESGPSLVKPSQTLSLTCTASGFSLSDKAVGWVRQAPGKALEWLGSIDTGGNTGYNPGLKSRLSITKDNSKSQVSLSVSSVTTEDSATYYCTTVHQRTSEKRSCPGGSSRRYPSGASCDVSGGACACYVSNCRGVLCPTLNEIVAYTYEWHVDAWGQGLLVTVSS
VL: QAVLNQPSSVSGSLGQRVSITCSGSSSNVGNGYVSWYQLIPGSAPRTLIYGDTSRASGVPDRFSGSRSGNTATLTISSLQAEDEADYFCASAEDSSSNAVFGSGTTLTVL
- pseudovirus luciferase assay EC50 [9]: > 1 nM
- pseudovirus luciferase assay EC50 [10]: > 1 nM
- pseudovirus neutralization, ng/mL (quantity not given) [11]: > 1000 ng/mL

B8: R4C1 ultralong CDR3 chimeric bovine-human IgG1 antibody (antibody)
VH: QVQLRESGPSLVKPSQTLSLTCTASGFSLSDKAVGWVRQAPGKPLEWLGSIDTAENTGYNPGLKSRLSITKDNSKSQVSLSVSSVTTEDSATYYCATVHQKTRKEKNCPDGYIYSSNTASGYDCGVWICRRVGSAFCSRTGDYTSPSEFDIYEFYVEGWGQGLLVTVSS
VL: QAVLNQPSSVSGSLGQRVSITCSGSSSNVGNGYVSWYQLIPGSAPRTLIYGDTSRASGVPDRFSGSRSGNTATLTISSLQAEDEADYFCASAEDSSSNAVFGSGTTLTVL
- pseudovirus neutralization, ng/mL (quantity not given) [6]: 99.9 ng/mL
- pseudovirus neutralization, ng/mL (quantity not given) [11]: 375 ng/mL

B9: R2F12 ultralong CDR3 chimeric bovine-human IgG1 antibody (antibody)
VH: QVQLRESGPSLVKPSQTLSLTCTVSGFSLSDKAVGWVRRAPGKALEWLGSIDTGGMTGYNPGLKSRLSITKDNSKSQVSLSVNSVTTEDSATYYCATVDQKTKNACPDDFDYRCSCIGGCGCARKGCVGPLCCRSDLGGYLTDSPAYIYEWYIDLWGQGLLVTVSS
VL: QAVLNQPSSVSGSLGQRVSITCSGSSSNVGNGYVSWYQLIPGSAPRTLIYGDTSRASGVPDRFSGSRSGNTATLTISSLQAEDEADYFCASAEDSSSNAVFGSGTTLTVL
- EC50 [1]: 0.085 nM
- EC50 [8]: 0.05 nM
- EC50 (read off the curve) [2]: ~0.02 nM
- EC50 (read off the curve) [4]: ~0.3 nM
- EC50 (read off the curve) [5]: ~0.2 nM
- EC50 (read off the curve) [7]: ~0.03 nM

B10: R2D9 ultralong CDR3 chimeric bovine-human IgG1 antibody (antibody)
VH: QVQLRESGPSLVKPSQTLSLTCTASGFSLSDKAIGWVRQAPGKALEWLGSIDTRGNTGYNPGLKSRLSITKDSSKSQVSLSVNSVTTEDSATYLCAIVQQITHKTCPNGYNWFDRCCSWDGTCGDGCCSNRAWPSGNGRADSSIGETYGYEFHVAAWGQGLLVTVSS
VL: QAVLNQPSSVSGSLGQRVSITCSGSSSNVGNGYVSWYQLIPGSAPRTLIYGDTSRASGVPDRFSGSRSGNTATLTISSLQAEDEADYFCASAEDSSSNAVFGSGTTLTVL
- pseudovirus neutralization, ng/mL (quantity not given) [6]: 0.26 ng/mL
- pseudovirus neutralization, ng/mL (quantity not given) [12]: 0.32 ng/mL
- pseudovirus neutralization, ng/mL (quantity not given) [11]: 0.33 ng/mL

B11: RBD C6 chimeric bovine-human IgG1 antibody (antibody, V domains shown)
VH: QVQLRESGPSLVKPSQTLSLTCTVSGFSLSSNGVVWVRQAPGRPLEWLGDICSNGGTSFNPALKSRLSIAKDNSESQVSLTVRSVTPEDTATYYCARSRGYDCYAYVYALDTVDAWGQGLLVTVSS
VL: QAVLNQPSSVSGSLGQRVSITCSGSSSNVGNGYVSWYQLIPGSAPRTLIYGDTSRASGVPDRFSGSRSGNTATLTISSLQAEDEADYFCASAEDSSSNAVFGSGTTLTVL
- EC50 [1]: 0.03 nM
- EC50 [8]: 0.03 nM

B12: RBD A2 chimeric bovine-human IgG1 antibody (antibody, V domains shown)
VH: QVQLRESGPSLVKPLQILSLTCTVSGFSLSSNGVVWVRQAPGKALEWLGDICSTGGTSFNPALKSRLSIAKDNSKSQVSLSVRSVTPEDTATYYCARSRGYDCYANVDALDYVDAWGQGLLVTVSS
VL: QAVLNQPSSVSGSLGQRVSITCSGSSSNVGNGYVSWYQLIPGSAPRTLIYGDTSRASGVPDRFSGSRSGNTATLTISSLQAEDEADYFCASAEDSSSNAVFGSGTTLTVL
- EC50 [1]: 0.03 nM
- EC50 [8]: 0.024 nM

B13: SR3A3 ultralong CDR3 chimeric bovine-human IgG1 antibody (antibody)
VH: QVQLRESGPSLVKPSQTLSLTCTISGFSLSSYAVLWVRQAPGKPLEWLGSIDTAENTGYNPGLKSRLSITKDNSKSQVSLSVSSVTTEDSATYYCATVHQKTRKEKNCPDGYIYSSNITSGFDCGVWICRRVGSAFCSRTGDYTSPTELDIYEFYVEGWGQGVPVTVSS
VL: QAVLNQPSSVSGSLGQRVSITCSGSSSNVGNGYVSWYQLIPGSAPRTLIYGDTSRASGVPDRFSGSRSGNTATLTISSLQAEDEADYFCASAEDSSSNAVFGSGTTLTVL
- binding result [1]: binds
- EC50 [8]: 0.037 nM

— patent publication US20240262893A1 (APPLIED BIOMEDICAL SCIENCE INSTITUTE, published 2024)
